Paper PMC10789646, “Uncovering the non-histone interactome of the BRPF1 bromodomain using site-specific azide-acetyllysine photochemistry” (The Journal of Biological Chemistry, 2023)
Where no end group is shown, it is not given here.

B1: WT BRPF1 bromodomain (domain or fragment)
chain: MEMQLTPFLILLRKTLEQLQEKDTGNIFSEPVPLSEVPDYLDHIKKPMDFFTMKQNLEAYRYLNFDDFEEDFNLIVSNCLKYNAKDTIFYRAAVRLREQGGAVLRQARRQAEKMG
notes: bromodomain of bromodomain-PHD finger protein 1 (BRPF1); vector pNIC28-Bsa4; also called bromodomain-PHD finger protein 1 bromodomain; source: E. coli One Shot BL21 star (DE3), purified (Ni-NTA, Superdex-75)

Experiments:
[1] = molecular target: histone H4K5acK8ac peptide 2 (acetyl-lysine at K5 and K8); experiment: ITC; peptide (1.5 to 1.8 mM, syringe) injected into protein (80 to 100 μM, cell); 15 °C; 50 mM Hepes pH 7.5, 200 mM NaCl, 5% glycerol; single-binding site model; details: both partners purified
[2] = molecular target: B1; experiment: as above; details: both partners purified

| Binder | Kd [1] | Kd [2] |
| --- | --- | --- |
| B1 | 24.6 ± 3.1 µM |  |
| BRPF1 bromodomain N651AzF (domain or fragment, 4-azido-L-phenylalanine (AzF) at 651, bromodomain of BRPF1 with the unnatural amino acid 4-azido-L-phenylalanine in place of N651; also called BRPF1-N651AzF; engineered BRPF1 bromodomain; source: E. coli One Shot BL21 Star (DE3) with pEVOL-pAzF (amber suppression), purified (Ni-NTA, Superdex-75); not shown: 6xHis, N-terminal, kept) MEMQLTPFLILLRKTLEQLQEKDTGFIFSEPVPLSEVPDYLDHIKKPMDFFTMKQNLEAYRYLNFDDFEEDFNLIVSNCLKYNAKDTIFYRAAVRLREQGGAVLRQARRQAEKMG | 21.6 ± 2.1 µM |  |
| RVGLVAK(Ac)GLLLK(Ac)G (holds the KGLLLK (100-105) motif; also called RVGLVAKacGLLLKacG 8; source: synthetic peptide (GL Biochem Ltd and S. Biochem Ltd, HPLC purified)) [diacetylated ILF3 peptide 8] |  | 250 ± 10.2 µM |
